In patent US20230212319A1, “NOVEL ANTIGEN BINDING DOMAINS AND SYNTHETIC ANTIGEN RECEPTORS INCORPORATING THE SAME” (University of Southern California, priority 2020, published 2023):

B1: 22151 (protein)
chain: MALPVTALLLPLALLLHAARPMLPAPKNLVVSRITEDSARLSWTAPDAAFDSFPIRYIETLIWGEAIWLDVPGSERSYDLTGLKPGTEYAVVITGVKGGRFSSPLVASFTTGTGGGGSGGGGSGGGGSEFSYVLTQPPSVSVAPGQTARITCGGNNIGGKSVHWYQQPPGQAPVVVVYDDSDRPSGIPERFSGSNSGNTATLTISRVEAGDEAVYYCQVWDSSSDHVVFGGGTKLTVLLEDLKNVFPPEVAVFEPSEAEISHTQKATLVCLATGFYPDHVELSWWVNGKEVHSGVCTDPQPLKEQPALNDSRYCLSSRLRVSATFWQNPRNHFRCQVQFYGLSENDEWTQDRAKPVTQIVSAEAWGRADCGFTSESYQQGVLSATILYEILLGKATLYAVLVSALVLMAMVKRKDSRGRAKRSGSGATNFSLLKQAGDVEENPGPTSMDWIWRILFLVGAATGAHSFEQLQLQESGPGLVKPSETLSLTCTVSGGSISSSSYFWGWIRQPPGKGLEWIGSIYYSGITYYNPSLKSRVTISVDTSKNQFSLKLSSVTAADTAVYYCARHDGAVAGLFDYWGQGTLVTVSSATRIQNPDPAVYQLRDSKSSDKSVCLFTDFDSQTNVSQSKDSDVYITDKCVLDMRSMDFKSNSAVAWSNKSDFACANAFNNSIIPEDTFFPSPESSCDVKLVEKSFETDTNLNFQNLSVIGFRILLLKVAGFNLLMTLRLWSSRAKRSGSGVKQTLNFDLLKLAGDVESNPGPSRGHMTEYKPTVRLATRDDVPRAVRTLAAAFADYPATRHTVDPDRHIERVTELQELFLTRVGLDIGKVWVADDGAAVAVWTTPESVEAGAVFAEIGPRMAELSGSRLAAQQQMEGLLAPHRPKEPAWFLATVGVSPDHQGKGLGSAVVLPGVEAAERAGVPAFLETSAPRNLPFYERLGFTVTADVEVPEGPRTWCMTRKPGA
B2: 22160 (protein)
chain: MALPVTALLLPLALLLHAARPACEVQLLESGGGLIQPGGSLRLSCAASGFTFSSHAMTWVRQAPGKGLEWVSAISGSGDYTHYADSVKGRFTISRDNSKNTVYLQMNSLRAEDSAVYYCAKDEDGGSLLGHRGQGTLVTVSSGTGGGGSGGGGSGGGGSEFDIQMTQSPSSLSASVGDRVTITCKASQDVGIAVAWYQQKPGKVPKLLIYWASTRHTGVPDRFSGSGSGTDFTLTISSLQPEDVATYYCQQYSSYPYTFGQGTKVEIKRLEADVSPKPTIFLPSIAETKLQKAGTYLCLLEKFFPDVIKIHWQEKKSNTILGSQEGNTMKTNDTYMKFSWLTVPEKSLDKEHRCIVRHENNKNGVDQEIIFPPIKTDVITMDPKDNCSKDANDTLLLQLTNTSAYYMYLLLLLKSVVYFAIITCCLLRRTAFCCNGEKSRAKRSGSGATNFSLLKQAGDVEENPGPTSMDWIWRILFLVGAATGAHSGPQVQLQESGGGLAQAGGSLRLSCAASGRTFSMGWFRQAPGKEREFVAAITYSGGSPYYASSVRGRFTISRDNAKNTVYLQMNSLKPEDTAVYYCAANPTYGSDWNAENWGQGTQVTVSSGSGGGGSGGGGSGGGGSFEQVQLQQPGAELVKPGASVKMSCKASGYAFSSYWINWMKQKPGQGLEWIGQIYPGDGDTNYNGKFKGRATLTADTSSSTAYMQLSSLTSEDSAVYFCARSITTVVGCAMDYWGQGTSVTVSSTRPHTKPSVFVMKNGTNVACLVKEFYPKDIRINLVSSKKITEFDPAIVISPSGKYNAVKLGKYEDSNSVTCSVQHDNKTVHSTDFEVKTDSTDHVKPKETENTKQPSKSCHKPKAIVHTEKVNMMSLTVLGLRMLFAKTVAVNFLLTAKLFFLRAKRSGSGVKQTLNFDLLKLAGDVESNPGPSRGHMTEYKPTVRLATRDDVPRAVRTLAAAFADYPATRHTVDPDRHIERVTELQELFLTRVGLDIGKVWVADDGAAVAVWTTPESVEAGAVFAEIGPRMAELSGSRLAAQQQMEGLLAPHRPKEPAWFLATVGVSPDHQGKGLGSAVVLPGVEAAERAGVPAFLETSAPRNLPFYERLGFTVTADVEVPEGPRTWCMTRKPGA
B3: 22150 (protein)
chain: MALPVTALLLPLALLLHAARPACEVQLLESGGGLIQPGGSLRLSCAASGFTFSSHAMTWVRQAPGKGLEWVSAISGSGDYTHYADSVKGRFTISRDNSKNTVYLQMNSLRAEDSAVYYCAKDEDGGSLLGHRGQGTLVTVSSGTGGGGSGGGGSGGGGSEFDVVMTQSPSSLSASVGDRVTITCMASEDIYIRLAWYQQKPGNAPKLLIYAATSLETGVPSRFSGSGSGTDFTLTISSLQPEDFATYYCQQYWSSPWTFGGGTKVEIKLEADVSPKPTIFLPSIAETKLQKAGTYLCLLEKFFPDVIKIHWQEKKSNTILGSQEGNTMKTNDTYMKFSWLTVPEKSLDKEHRCIVRHENNKNGVDQEIIFPPIKTDVITMDPKDNCSKDANDTLLLQLTNTSAYYMYLLLLLKSVVYFAIITCCLLRRTAFCCNGEKSRAKRSGSGATNFSLLKQAGDVEENPGPTSMDWIWRILFLVGAATGAHSGPQVQLQESGGGLAQAGGSLRLSCAASGRTFSMGWFRQAPGKEREFVAAITYSGGSPYYASSVRGRFTISRDNAKNTVYLQMNSLKPEDTAVYYCAANPTYGSDWNAENWGQGTQVTVSSGSGGGGSGGGGSGGGGSFEQVQLQESGPGLVKPSQTLSLTCTVSGYSITSDYTWNWIRQPPGNGLEWIGYITYSGSTSYNPSLKSRVLISVDTSKNQVSLKLSSVTAADTAVYYCARLGRRYTMDYWGQGTTVTVSSTRPHTKPSVFVMKNGTNVACLVKEFYPKDIRINLVSSKKITEFDPAIVISPSGKYNAVKLGKYEDSNSVTCSVQHDNKTVHSTDFEVKTDSTDHVKPKETENTKQPSKSCHKPKAIVHTEKVNMMSLTVLGLRMLFAKTVAVNFLLTAKLFFLRAKRSGSGVKQTLNFDLLKLAGDVESNPGPSRGHMTEYKPTVRLATRDDVPRAVRTLAAAFADYPATRHTVDPDRHIERVTELQELFLTRVGLDIGKVWVADDGAAVAVWTTPESVEAGAVFAEIGPRMAELSGSRLAAQQQMEGLLAPHRPKEPAWFLATVGVSPDHQGKGLGSAVVLPGVEAAERAGVPAFLETSAPRNLPFYERLGFTVTADVEVPEGPRTWCMTRKPGA
B4: 22246 (protein)
chain: MALPVTALLLPLALLLHAARPACEVQLLESGGGLIQPGGSLRLSCAASGFTFSSHAMTWVRQAPGKGLEWVSAISGSGDYTHYADSVKGRFTISRDNSKNTVYLQMNSLRAEDSAVYYCAKDEDGGSLLGHRGQGTLVTVSSGTGPQGIFGQPGYINEFDIQMTQSPSSLSASVGDRVTITCKASDHINNWLAWYQQKPGQAPKLLIYGATTLETGVPSRFSGSGSGTDYTLTISSLQPEDFATYYCQQSWNTPWTFGQGTKLEIKRLEDLKNVFPPEVAVFEPSKAEIAHTQKATLVCLATGFYPDHVELSWWVNGKEVHSGVCTDPQPLKEQPALNDSRYCLSSRLRVSATFWQNPRNHFRCQVQFYGLSENDEWTQDRAKPVTQIVSAEAWGRADCGITSASYHQGVLSATILYEILLGKATLYAVLVSALVLMAMVKRKDSRGRAKRSGSGATNFSLLKQAGDVEENPGPTSATMDWIWRILFLVGAATGAHSGPEVQLVESGGGLVQAGGSLRLSCAASGRTFSMGWFRQAPGKEREFVAAITYSGGSPYYADSVKGRFTISRDNAKNTVYLQMNSLKPEDTAVYYCAANPTYGSDWNAENWGQGTQVTVSSGSGGGGSGGGGSGGGGSFEQVQLQQPGAELVKPGASVKMSCKASGYAFSSYWINWMKQKPGQGLEWIGQIYPGDGDTNYNGKFKGRATLTADTSSSTAYMQLSSLTSEDSAVYFCARSITTVVGCAMDYWGQGTSVTVSSTRIQNPDPAVYQLRDSKSSDKSVCLFTDFDSQTNVSQSKDSDVYITDKCVLDMRSMDFKSNSAVAWSNKSDFACANAFNNSIIPEDTFFPSPESSCDVKLVEKSFETDTNLNFQNLSVIGFRILLLKVAGFNLLMTLRLWSSRAKRSGSGVKQTLNFDLLKLAGDVESNPGPSRGHMTEYKPTVRLATRDDVPRAVRTLAAAFADYPATRHTVDPDRHIERVTELQELFLTRVGLDIGKVWVADDGAAVAVWTTPESVEAGAVFAEIGPRMAELSGSRLAAQQQMEGLLAPHRPKEPAWFLATVGVSPDHQGKGLGSAVVLPGVEAAERAGVPAFLETSAPRNLPFYERLGFTVTADVEVPEGPRTWCMTRKPGA

The molecules below were run on L363 cells (assay: JNG assay, co-culture with L363 cells). Conditions: co-culture with L363.
Assay type: cell-based
Outline: (§1)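 Jurkat NFAT-GFP (JNG) cells stably transduced with SARs by lentivirus, with drug selection where the construct carried a resistance gene, then co-cultured with target cells at E:T ~1:2 for ~4–18 h. % GFP-positive cells measured by FACS against parental JNG; +/- to 5+ correspond to ~5–50% GFP-positive.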

Molecule | NFAT-GFP ASSAY: L363
B1 | 2+ (refer to approximately 5%, 10%, 20%, 30%, 40% and 50% GFP positive cells)
B2 | + (refer to approximately 5%, 10%, 20%, 30%, 40% and 50% GFP positive cells)
B3 | +/- (refer to approximately 5%, 10%, 20%, 30%, 40% and 50% GFP positive cells)
B4 | + (refer to approximately 5%, 10%, 20%, 30%, 40% and 50% GFP positive cells)

Each molecule was assayed on Nalm6 cells (assay: JNG assay, co-culture with Nalm6 cells). Conditions: co-culture with Nalm6.
Assay type: cell-based
Outline: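 Jurkat NFAT-GFP reporter cells stably expressing lentivirally transduced SARs, drug-selected where possible, were co-cultured with target cells at E:T ≈1:2 for ~4–18 h. GFP measured by FACS; scored +/- to 5+ (~5–50% GFP+ cells) above parental reporter cells.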

Molecule | NFAT-GFP ASSAY: Nalm6
B2 | + (refer to approximately 5%, 10%, 20%, 30%, 40% and 50% GFP positive cells)
B4 | + (refer to approximately 5%, 10%, 20%, 30%, 40% and 50% GFP positive cells)

Each molecule was assayed on RAJI cells (assay: JNG assay, co-culture with RAJI cells). Conditions: JNG cells expressing construct, co-culture with Raji.
Assay type: cell-based
Outline: as §1

Molecule | NFAT-GFP ASSAY: Raji
B2 | 2+ (refer to approximately 5%, 10%, 20%, 30%, 40% and 50% GFP positive cells)
B3 | + (refer to approximately 5%, 10%, 20%, 30%, 40% and 50% GFP positive cells)

Each molecule was assayed on U266 cells (assay: JNG NFAT-GFP induction on co-culture with U266). Conditions: not given.
Assay type: cell-based

Molecule | NFAT-GFP ASSAY: U266
B1 | 4+ (refer to approximately 5%, 10%, 20%, 30%, 40% and 50% GFP positive cells)
B2 | 3+ (refer to approximately 5%, 10%, 20%, 30%, 40% and 50% GFP positive cells)
B3 | + (refer to approximately 5%, 10%, 20%, 30%, 40% and 50% GFP positive cells)
B4 | 2+ (refer to approximately 5%, 10%, 20%, 30%, 40% and 50% GFP positive cells)
